Earlier results in PMC11349558.

Biological target: histone H4 (UniProt P62805)

## fibrinogen D-domain (from UniProt P02671)
  Kd: 2 nM
